The nature of this data set: soluble on expression in E. coli; label from the status in PepcDB or PDB records.
For “MAAASFAPFQDLANLLIPYTHAEKIDGSHDVSHLLRVWKNVCAIRDREGGDARVLMAATLLHDCVSVEKDSPFRAGASRLAAARARELLGDMGWDEESIASVAHAVEAHSFSAAITPVSLEAKILQDADRLDSLGMIGVARTFYVSGRMGKYLYEPNDPHASQRPYDDKRFAVDHFHTKLLHLADGFQTRTGTQMAKVRHDRLKRFLDELMEEIDASRPLEHHHHHH”, the “soluble on expression in E. coli” value is recorded as “not soluble”. As for “MPKIAKSDRLENVAFEYIKNKITTGEYPTGYRVVEAKLSQELNMSRTPIRRAIINLCHSGFLVHQYNRGAFVQNTEVTITEFFSRMKLVELLVYESTEKLALREDYIVVDDIIEIAEKVIQYEKNREYELMRGAFEDFISTFIGKLNNDYFNRVIQDLWNEINDNATKEVRLIIVSASDRIAEELAHMIEILKSWNYEQLKKCFQHIMNAMILIAF”, the “soluble on expression in E. coli” value was “not soluble”. The result for “MTGEIVTVVKGKVRWVEGEQFIGRIEGDKCSVILGEGGISPMKLLLLSVAGCTSYDVVMILKKMREPIKGLEVEIEGVRREEHPRIYKEVTIHYKIYGNVNEKKARRAIELSQEKYCSASAHLKLSGTDVKYTLEVIRDDEPPSQLNK” reads “soluble”. The result for “MGHHHHHHSHMYAAGLGMLEPTKEPLKPLSAAEKIASIGQTATMSPDMNTCTSDQFQESLPPVQFDWSSSGLTNPLDGVDPELYELTTSKLEISTSSLKVTDAFARLMSTVEKTSTSTSRKPKREEHLSEEAIKVIAGLPDLTFMHAKVLMFPATLTPSTSSQEKADG” reads “not soluble”; that for “MSLMPRIKPLLVLCAALLTVTPAASADVNSDMNQFFNKLGFASNTTQPGVWQGQAAGYAYGGSLYARTQVKNVQLISMTLPDINAGCGGIDAYLGSFSFINGEQLQRFVKQIMSNAAGYFFDLALQTTVPEIKTAKDFLQKMASDINSMNLSSCQAAQGIIGGLFPRTQVSQQKVCQDIAGESNIFADWAASRQGCTVGGKSDSVRDKASDKDKERVTKNINIMWNALSKNRMFDGNKELKEFVMTLTGSLVFGPNGEITPLSARTTDRSIIRAMMEGGTAKIYHCNDSDKCLKVVADTPVTISRDNALKSQITKLLASIQNKAVSDTPLDDKEKGFISSTTIPVFKYLVDPQMLGVSNSMIYQLTDYIGYDILLQYIQELIQQARAMVATGNYDEAVIEHINDNMNDATRQIAAFQSQVQVQQDALLVVDRQMSYMRQQLSARMLSRYQNNYHFGGSTLEGHHHHHH”, “not soluble”.

With “MEDLALRPKTLDEYIGQERLKQKLRVYLEAAKARKEPLEHLLLFGPPGLGKTTLAHVIAHELGVNLRVTSGPAIEKPGDLAAILANSLEEGDILFIDEIHRLSRQAEEHLYPAMEDFVMDIVIGQGPAARTIRLELPRFTLIGATTRPGLITAPLLSRFGIVEHLEYYTPEELAQGVMRDARLLGVRITEEAALEIGRRSRGTMRVAKRLFRRVRDFAQVAGEEVITRERALEALAALGLDELGLEKRDREILEVLILRFGGGPVGLATLATALSEDPGTLEEVHEPYLIRQGLLKRTPRGRVATELAYRHLGYPPPVGPLLEP”, the “soluble on expression in E. coli” value is “soluble”. In the case of “PDGPTQLRALNLTEGFAVLHWKPPQNPVDTYDIQVTAPGAPPLQAETPGSAVDYPLHDLVLHTNYTATVRGLRGPNLTSPASITFTTGLEAPRDLEAKEVTP”, the “soluble on expression in E. coli” value is listed as “soluble”. “MSLSERTYFPPAEEGELSKVESFLAVYKDRHGTEARPQFFLSGSNEGEQIPLPKELYEILVRTVEALASGKAVTIHPNDPLVTTQQAAELLGVSRPTVVKLIEDGKLEATKVTRHRRIKLEDVLRYQERQTIEQLDFLASTTSDAPALTESEYVSVRKMLANKRKESRIG”: the “soluble on expression in E. coli” value is “not soluble”. The result for “MPKVGMPEIRKPQLVKATMSVIDRVGLHAASISLISKEAGVSTGIINHYFGGKHGLLEETMREILRQLSSTITGKLRALPADAHHQRINAIIDGNFVGYQAENKVAKTWLAFWSYSMHDEQLKRLQRVNERRLLSHLRRELKALLSAEQAELVAHGIASLIDGIWLRGTLNPQGIEADKARIIINDYLDKQLTFYSHKI” reads “not soluble”; that for “MAHHHHHHMLANEGRNASANNTTQPSFLILSSKNRHCITHNLTQIQTRCRPHFTEKRLKRGSWLKREEVWIEVQLCYRLGRRFTPTLFSQCAYRPSIRLGPTGTTGLAVPLLKIIYRQNSTIQKHKKEDDEKRCIKKKTIYGT”, “not soluble”; that for “FDFKAGEEVLARWTDCRYYPAKIEAINKEGTFTVQFYDGVIRCLKRMHIKAMPEDAKGQDWIALVKA”, “soluble”.

In the case of “MDQFISAFLKSASENNFQQLAKEFLPQYSALISKAGGMLSPETLTGIHKALQEGNLSDVMSQIQKAISAAENAILEVAVIGQSGTGKSSFINALRGLGHEADESADVGTVETTMCKTPYQHPKYPKVIFWDLPGTGTPNFHTDTYLDQVGFANYDFFIIISSSRFSLNDALLAQKIKDAGKKFYFVRTKVDSDLYNEQKAKPIAFKKEKVLQQIRDYCVTNLIKTGVTEPRIFLISNLDLGTFDFPELEETLLKELPGHKRHMFALLLPNISDASIELKKHFLREKIWLEALKSAAVSFIPFMTFFKGFDLPEQEQCLKDYRSYFGLDDQSIKEIAEKLGAPLADIKGELKCLDFWSLVKDNSIIAQATSAAEAFCAVKGGPESSAFQALKVYYRRTQFLNIVVDDAKHLLRKIETVNVA”, the “soluble on expression in E. coli” value is on record as “soluble”. Regarding “MGLLKALLGFDRRDIETLARSNEENRRRIEALEAALARLEERISSISQALGRDARSTESLQGVEKEGGRETEYEGHNGTVEEGMLEDEGIIISHLEKGDATPSELIRDTGLSKNRVYGVLKRLVERGIVEKRRDGRRVVYSLRRVEAQADAPG”, the “soluble on expression in E. coli” value is reported as “not soluble”.

On to “MGSDKIHHHHHHMKKRNITEFQVLSEIIRKQPHIKQKEIAENLGITVQAVSEHIRNLVKEGYVKSRGRGEYVVTEKGLRKLKNWISEFKDYLDEINTAVYRYKDIWPAIADEDVKDGETVYLFMKNGLLYASKQPKGEAKAKALYGGKKGEDIAICEIKGIIDVPKGKVIVFRIPPEVVGGSRAVDFNLIKENIDNLDDYVIATMGTVAYVVACKLGLKPDIRFAVPEAIVNACNRGCNVIALITGKMAEKVIKKLDNAKISYTVLDATKENK”, for which the “soluble on expression in E. coli” value is reported as “not soluble”. The entry for “SAAAIAASALPGAFGRLVSVCSRSILASQGSGSASLWSASRRFNSQSASYPQGYVPKTSLSSPPWQEVVLPDPVEETRHHAEVVKRVNELIATGQYGRLFAVVHFASHQWKVTAEDLILIENELDIKCGERIRLEKVLLVGADNFTLLGKPLLRKELVRVEATVIEKTESWPKINMKFRKRKNFRKKKIIVNPQTILRINTIEIAPRLL” is “soluble”; for “KGHLTRLGLEFFDQPAVPLARAFLGQVLVRRLPNGTELRGRIVETEAYLGPEDEAAHSRGGRQTPRNRGMFMKPGTLYVYIIYGMYFCMNISSQGDGACVLLRALEPLEGLETMRQLRSTLRKGTASRVLKDRELCSGPSKLCQALAINKSFDQRDLAQDEAVWLERGPLEPSEPAVVAAARVGVGHAGEWARKPLRFYVRGSPWVSVVDRVAEQDTQA” it is “soluble”; for “PIEGEKVDLRIMSTTDLHTNLVNYDYYQDKESQKIGLAKTAVLIEEAKKENPNTVLVDNGDVIQGTPLGTYKAIVKPVAENEEHPMYQAMNALGYDASTLGNHEFNYGLDYLKKIIATANLPILNANVLDFKTHQPVFKTYDIITKTFKDSTGRAVALNIGITGIVPPQILNWDKANLEGKVIVKDSVKAIEEIVPTMRAKGADVILVLSHSGIGDDRYEEGEENVGYQIASIKGVDAVVTGHSHAEFPSGNGTGFYEKYTGVDGINGKINGTPVTMAGKYGDHLGIIDLGLSYTNGKWQVSESSAKIRKIDMNSTTADERIIALAKEAHDGTINYVRQ” it is “not soluble”. The entry for “RLPFMAQYDRLGLTRSNTSCHNNTGKQCLWGDTEKQPELLVLGDSHADHYKTFFDAVGKKEKWSATMVSADACAYVEGYASRVFQNWAACRAVYRYAEEHLPRYSKVVLAMRWGSQMPENSRSLAYDAGFFQKFDRMLHKLSSEKQAVYLMADNLASSYNVQRAYILSSRIPGYRQALRPDDESTLKANARIRELAAKYPNVYIIDAAAYIPADFQIGGLPVYSDKDHINPYGGTELAKRFSEKQRFLDTRHNH” is “not soluble”. Turning to “MGSDKIHHHHHHMSSVHAINQSYWFSTQLPHVESRTTRNSSHAYKTHSHAQFSIGAIEHGETLCHYRNETHHLQAGDLIFIDPQQPHSCNPPPGKMRSYHMLYLDTAWCLDQIAVHCNYQADSLRCNRVVLRDPTLFIRYQHLITLLHRGEITSADSLLNAMLTPVWQQYCLPEPALPHQALQTTTRHVRERLLNNLQESPSLETLADELNLRRETIVRQFRHDTGITPMAFLNNARIEYAKSLLKQGTPLVDTSYQSGFCDQSHFHKTFVQYTSATPGQYARSIFDNK”, the “soluble on expression in E. coli” value is “not soluble”. Turning to “MKLPVPSPMRLAVTHEGRSIIYIPSPEYAVASGRLEPAWLEVFYNPAMEFNRDVSVVAASALRRTGLLTRSGVAFDAHAGVGVRGVRYAVEAGYVKVIMNDINPKASMLAALNARANGLEPGSYMIFNKESNSLMFHLSRERPTPVSLIDIDPYGSPAPFVDAALALSGKGTVVAMTATDLAVLEGGKARAAVRRYMLRSVSKTPVSKETGLRVLLGYVARVAAAHDKAVKPLLAYYADHYYRVYVAVERGARRSDSMLEENLGRLVYCPETGVALALSYAEDPASACGGSYVVAADPAWIGSLGDQAFLEAMLNIAVEAVWLGTRPRVEKLLNTLHGEAPLSPRSIYVSLTSVASKARVNTPKKSKVVELLRSMGYRAVATHFSGEGVRTDAPWGEVLEAVVKLGSSG”, the “soluble on expression in E. coli” value is “soluble”.

Regarding “MATYNGQGFIHDQLDSIRNQTLRPDYVLMRDDGSTDDTVKVVEDYIKEHRLDGWSITSNDKNLGWRLNFRQLLIDVLAYEVDYVFFSDQDDTWYHHKNKMQVDIMEERQDINLLSADIDIKKLSEEATIPNNFKFNGEETISKYPLDFSYHNYRQGWTFCLRKSFVDQVMTFYSDNLILSHDNLFAGVSGVIGSGYNLNRSVGEHKRHAENASGNILNMSSSYERHLQELYFVLSYYIILVPFLEKSSSSQLREAKAYLDFNQQRYKNAQNKDFVAILKQMMTKKRFYDSFSNRIRDLVFLLKDIKRSLEHHHHHH”, the “soluble on expression in E. coli” value is given as “soluble”. As to “MSLDAVKMVKGKVAEIMQNDRLGGLDVLEAEFSKTWEFKNHNVAVYSIQGRRDHMEDRFEVLTDLANKTHPSIFGIFDGHGGETAAEYVKSRLPEALKQHLQDYEKDKENSVLSYQTILEQQILSIDREMLEKLTVSYDEAGTTCLIALLSDKDLTVANVGDSRGVLCDKDGNAIPLSHDHKPYQLKERKRIKRAGGFISFNGSWRVQGILAMSRSLGDYPLKNLNVVIPDPDILTFDLDKLQPEFMILASDGLWDAFSNEEAVRFIKERLDEPHFGAKSIVLQSFYRGCPDNITVMVVKFRNSSKTEEQEGHHHHHH”, the “soluble on expression in E. coli” value was “soluble”.

On to “MGSDKIHHHHHHMNAMTQVSPLLEMRGICKTFPGVKALDDVSFDIYPGEVHMLLGENGAGKSSLMKVLCGVYVADAGEFHHQGQRVEVSGPADTMRLGIAVIFQEFSLVPYLDIAQNIFLGREPRGRVPGSVDHAKMHAEARRLLDTLGMDISTHTPVHRLGVAQQQMIEIAKALSQNARILVLDEPTAALSERETEKLFGVIARLKADGVSMIYISHRMAEVFALGDRITVMRDGRKVGSYMPGDATPDELVARMVGRKVDMGYTRTRGGPVGEVALDMQGVSADNGIDDITLQVRAGEIVGLAGLVGSGRSEVARAVFGADPVRAGEIRIFGKSMRGGPDKARALGAALIPESRKTEGLALIRSVRDNLLLAGLRRAFPAHWYRSGKAAQLSTREIGRLRIATPSGDQLAQFLSGGNQQKIVIGKWLVAESRLFIFDEPTRGIDVGAKAEIFALIDGLVKQGAAVLLISSELPEIINVCDRTYVMRGGRVAGELAHDAMTEESILQLGMNDA”, for which the “soluble on expression in E. coli” value is “not soluble”.

The values above are taken from the DeepSol protein solubility set.
